Where a chain is given by its changes, count along the chain named.
B1: mAb 15 (antibody)
heavy: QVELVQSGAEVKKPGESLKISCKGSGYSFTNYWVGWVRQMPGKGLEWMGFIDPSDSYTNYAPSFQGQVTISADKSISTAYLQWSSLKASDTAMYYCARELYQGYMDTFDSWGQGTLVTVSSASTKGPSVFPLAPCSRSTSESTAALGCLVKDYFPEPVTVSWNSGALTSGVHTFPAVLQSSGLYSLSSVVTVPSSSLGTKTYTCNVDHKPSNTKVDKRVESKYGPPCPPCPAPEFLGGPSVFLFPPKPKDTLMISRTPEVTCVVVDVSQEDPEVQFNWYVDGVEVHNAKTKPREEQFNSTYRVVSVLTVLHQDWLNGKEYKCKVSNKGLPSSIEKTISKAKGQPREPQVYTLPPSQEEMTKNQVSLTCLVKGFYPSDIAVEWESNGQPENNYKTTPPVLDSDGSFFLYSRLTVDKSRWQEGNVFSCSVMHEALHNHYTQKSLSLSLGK
light: DIQMTQSPSSLSASVGDRVTITCRASQSIGLYLAWYQQKPGKAPKLLIYAASSLQSGVPSRFSGSGSGTDFTLTISSLQPEDFATYYCQQGNTLSYTFGQGTKVEIKRTVAAPSVFIFPPSDEQLKSGTASVVCLLNNFYPREAKVQWKVDNALQSGNSQESVTEQDSKDSTYSLSSTLTLSKADYEKHKVYACEVTHQGLSSPVTKSFNRGEC
B2: mAb 5429 (antibody, V domains shown)
VH: EVQLVASGGGLVKPGASLKLSCVASGFTFSDYWMAWVRQTPGKPMEYIGDIKSDGSKVNYAPSLKNRFTISRDNARTTLYLQMSNVRSEDTATYYCNRDIGPDWYFDFWGPGTMVTVSS
VL: DIQMTQSPTSLSASLGETVTIECRASEDIYNGLAWYQQKPGKSPQLLIYDSNSLHTGVPSRFSGRGSGTQYSLRINSLQSEDVASYFCQQYYDYPLTFGSGTKLEIKR
B3: mAb 15EVQ (antibody)
heavy: not shown
light: B1 light
B4: mAb 1 (antibody, V domains shown)
V domain 1: GVELVQSGAEVKKPGESLKISCKGSGYSFTDNWISWVRQAPGKGLEWMGVIDPSDSYTNYAPSFQGQVTISADKSISTAYLQWSSLKASDTAMYYCAREWGIGGMVDIWG
V domain 2: DIVLTQSPATLSLSPGERATLSCRASQYIDISYLAWYQQKPGQAPRLLIYDASSRATGVPARFSGSGSGTDFTLTISSLEPEDFAVYYCQQYYSLSITFGQGTKVEIK
B5: mAb 2 (antibody, V domains shown)
VH: QVELVQSGAEVKKPGESLKISCKGSGYSFNNYWIGWVRQMPGKGLEWMGIIDPQDSWTNYAPSFQGQVTISADKSISTAYLQWSSLKASDTAMYYCARNIYEFDYWGQGTLVTVSS
VL: DIQMTQSPSSLSASVGDRVTITCRASQGISSWLNWYQQKPGKAPKLLIYGASNLQSGVPSRFSGSGSGTDFTLTISSLQPEDFAVYYCQQYDDFSITFGQGTKVEIK
B6: mAb 3 (antibody, V domains shown)
VH: QVELQQSGPGLVKPSQTLSLTCAISGDSVSTRSAAWGWIRQSPGRGLEWLGRIHRRSKWYNDYAVSVKSRITINPDTSKNQFSLQLNSVTPEDTAVYYCARHTYPYLSFDVWGQGTLVTVSS
VL: DIELTQPPSVSVAPGQTARISCSGDALGGYFVSWYQQKPGQAPVLVIYDDDNRPSGIPERFSGSNSGNTATLTISGTQAEDEADYYCASYDGDEFTVFGGGTKLTVL
B7: mAb 4 (antibody, V domains shown)
VH: B6 VH with R52K, H54S, R55Y, K58R
VL: B6 VL
B8: mAb 5 (antibody, V domains shown)
VH: B6 VH with H54Y, R55M
VL: B6 VL with A88Q, G92E, E94S, F95A
B9: mAb 6 (antibody, V domains shown)
VH: B6 VH with H54Y, R55M
VL: B6 VL with A88G, G92S, D93N, E94S, F95L
B10: mAb 7 (antibody, V domains shown)
VH: B6 VH with H54Y, R55M
VL: B6 VL with A88S, G92S, E94S, F95L
B11: mAb 8 (antibody, V domains shown)
VH: QVELQQSGPGLVKPSQTLSLTCAISGDSVSSNSAAWGWIRQSPGRGLEWLGIIQTRSKWYNDYAVSVKSRITINPDTSKNQFSLQLNSVTPEDTAVYYCARYSYPFYSIDYWGQGTLVTVSS
VL: DIELTQPPSVSVAPGQTARISCSGDNIGSYYVHWYQQKPGQAPVLVIYEDSERPSGIPERFSGSNSGNTATLTISGTQAEDEADYYCQSYDSQFSFGVFGGGTKLTVL
B12: mAb 9 (antibody, V domains shown)
VH: B11 VH with T55I, V65L
VL: B11 VL
B13: mAb 10 (antibody, V domains shown)
VH: B11 VH with T55K, D62N
VL: DIELTQPPSVSVAPGQTARISCSGDNIGSYYVHWYQQKPGQAPVLVIYEDSERPSGIPERFSGSNSGNTATLTISGTQAEDEADYYCQSYDTPVYSVFGGGTKLTVL
B14: mAb 11 (antibody, V domains shown)
VH: B11 VH with T55K, D62N
VL: B13 VL with Q88S, T92E, V94N, Y95F, S96N
B15: mAb 12 (antibody, V domains shown)
V domain 1: B11 VH with T55K, D62N
V domain 2: B11 VH with Q1D, V2I, T55K, D62N
B16: mAb 13 (antibody, V domains shown)
VH: QVELVQSGAEVKKPGESLKISCKGSGYSFTNYWVGWVRQMPGKGLEWMGFIDPSDSYTNYAPSFQGQVTISADKSISTAYLQWSSLKASDTAMYYCARELYQGYMDTFDSWGQGTLVTVSS
VL: DIQMTQSPSSLSASVGDRVTITCRASQSIGLYLAWYQQKPGKAPKLLIYAASSLQSGVPSRFSGSGSGTDFTLTISSLQPEDFATYYCQQGESILSTFGQGTKVEIK
B17: mAb 14 (antibody, V domains shown)
VH: B16 VH
VL: DIQMTQSPSSLSASVGDRVTITCRASQSIGLYLAWYQQKPGKAPKLLIYAASSLQSGVPSRFSGSGSGTDFTLTISSLQPEDFATYYCQQAETVSPTFGQGTKVEIKR
B18: mAb 16 (antibody, V domains shown)
VH: B5 VH with Q54G, W57Y
VL: B5 VL
B19: mAb 17 (antibody, V domains shown)
VH: B6 VH with H54Y, R55M
VL: B6 VL
B20: mAb 18 (antibody, V domains shown)
VH: B11 VH with T55K, D62N
VL: B11 VL
B21: mAb 19 (antibody, V domains shown)
VH: B16 VH
VL: B16 VL with G91Y, E92G, I94V, L95S, S96I

biological target: full-length murine TLR3 (mouse); assay: cell-based or functional assay

| Binder | IC50, poly(I:C)-induced ISRE luciferase reporter [µg/mL] |
| --- | --- |
| B1 | 22 |
| B2 | 0.5 |

biological target: cynomolgus TLR3 (cynomolgus, UniProt A0A2K5WT39); assay: cell-based or functional assay

| Binder | IC50, ISRE reporter gene assay [µg/mL] | IC50, NF-κB reporter gene assay [µg/mL] |
| --- | --- | --- |
| B3 | 1.74 | 4.18 |

biological target: full length human TLR3 (human); assay: cell-based or functional assay

| Binder | % inhibition of poly(I:C)-induced NF-κB luciferase reporter [%] |
| --- | --- |
| B4 | > 50 |
| B5 | > 50 |
| B6 | > 50 |
| B7 | > 50 |
| B8 | > 50 |
| B9 | > 50 |
| B10 | > 50 |
| B11 | > 50 |
| B12 | > 50 |
| B13 | > 50 |
| B14 | > 50 |
| B15 | > 50 |
| B16 | > 50 |
| B17 | > 50 |
| B1 | > 50 |
| B18 | > 50 |
| B19 | > 50 |
| B20 | > 50 |
| B21 | > 50 |

— patent US9932404B2 (Janssen Biotech, Inc., dated 2018)
